Data from the supplement of paper PMC7877785.
± gives the uncertainty stated by the source.

Assay: self-splicing fitness, log relative to wild type (ln ratio); higher = more splicing; Tetrahymena group I intron in knt gene, E. coli kanamycin selection, DiMSum; sequences stand for … in CUCUCU…GGAGGGAAAAGUUAUCAGGCAUGCACCUGGUAGCUAGUCUUUAAACCAAUAGAUUGCAUCGGUUUAAAAGGCAAGACCGUCAAAUUGCGGGAAAGGGGUCAACAGCCGUUCAGUACCAAGUCUCAGGGGAAACUUUGAGAUGGCCUUGCAAAGGGUAUGGUAAUAAGCUGACGGACAUGGUCCUAACCACGCAGCCAAGUCCUAAGUCAACAGAUCUUCUGUUGAUAUGGAUGCAGUUCACAGACUAAAUGUCGGUCGGGGAAGAUGUAUUCUUCUCAUAAGAUAUAGUCGGACCUCUCCUUAAUGGGAGCUAGCGGAUGAAGUGAUGCAACACUGGAGCCGCUGGGAACUAAUUUGUAUGCGAAAGUAUAUUGAUUAGUUUUGGAGUACUCGUGGUCG
Procedure, shortened: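 DiMSum derived fitness as the error-weighted combination of fold changes across replicates, kanamycin versus no kanamycin, normalised to wild type. E. coli BL21(DE3) held the library, which randomised all eight P1ex-region intron nucleotides within the knt kanamycin-resistance gene on pET-22b(+). Six replicate transformations grew overnight at 37°C or 30°C on LB agar with or without 25 μg/mL kanamycin, also containing 100 μg/mL carbenicillin, 50 μM IPTG and 0.2% rhamnose, and pooled colonies were amplicon-sequenced on an Illumina HiSeq 2500.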

Sequence	self-splicing fitness (ln) (30 °C)	self-splicing fitness (ln) (37 °C)
UGCAAGCAAUAUUACGUACG	-0.89 ± 0.12	-0.478 ± 0.1
CUCCAGCAAUAUUACGGAUA	-1.82 ± 0.11	-0.962 ± 0.1
CGGGAGCAAUAUUACGGCGU	-3.6 ± 0.26	-1.73 ± 0.21
UACCAGCAAUAUUACGAGCU	-3.29 ± 0.21	-2.7 ± 0.24
GACGAGCAAUAUUACGCGGC	-3.25 ± 0.29	
ACUGAGCAAUAUUACGGUGU	-3.14 ± 0.13	-1.41 ± 0.1
UAUGAGCAAUAUUACGUCCU	-2.35 ± 0.23	-2.19 ± 0.49
GAACAGCAAUAUUACGCGCC	-0.957 ± 0.13	-0.851 ± 0.15
UCUAAGCAAUAUUACGUAGU	-0.857 ± 0.05	-0.481 ± 0.069
GCUGAGCAAUAUUACGAGCA	-1.54 ± 0.14	-1.34 ± 0.15
AAUGAGCAAUAUUACGUAUU	-3.41 ± 0.14	-2.48 ± 0.16
GGAAAGCAAUAUUACGGUCU	-2.31 ± 0.12	-1.17 ± 0.15
GAUGAGCAAUAUUACGAGCG	-2.62 ± 0.44	
AUUGAGCAAUAUUACGAUGC	-1.58 ± 0.38	
CUUGAGCAAUAUUACGGCAC	-2.5 ± 0.34	-2.71 ± 0.39
UAGUAGCAAUAUUACGGUCC		-1.53 ± 0.35
CAAUAGCAAUAUUACGGAUU	-3.94 ± 0.2	-3.55 ± 0.3
UUAUAGCAAUAUUACGGUUA	-0.941 ± 0.08	-0.0464 ± 0.084
CUGGAGCAAUAUUACGUCCU	-3.17 ± 0.16	-2.56 ± 0.22
ACUUAGCAAUAUUACGUUCG	-1.52 ± 0.18	-0.802 ± 0.18
UCCGAGCAAUAUUACGCACG	-3.01 ± 0.43	
UGGUAGCAAUAUUACGAGAG	-3.55 ± 0.28	-2.16 ± 0.21
ACACAGCAAUAUUACGCAAA	-3.2 ± 0.11	-1.85 ± 0.092
CGGCAGCAAUAUUACGAUUU	-3.18 ± 0.22	-2.64 ± 0.23
GGAAAGCAAUAUUACGCAGA	-3.75 ± 0.28	-1.52 ± 0.18

Sequence	self-splicing fitness (ln) (30 °C)	self-splicing fitness (ln) (37 °C)
CAGGAGCAAUAUUACGCGGA	-2.78 ± 0.25	
CUCAAGCAAUAUUACGUGGG	-4.05 ± 0.17	-2.85 ± 0.15
ACAGAGCAAUAUUACGUGAC	-3.76 ± 0.24	-1.6 ± 0.17
AGCCAGCAAUAUUACGCUCA	-1.83 ± 0.1	-1.64 ± 0.13
AACGAGCAAUAUUACGGGAU	-4.34 ± 0.19	-3.33 ± 0.23
GCUCAGCAAUAUUACGCACA	-1.05 ± 0.1	0.0263 ± 0.11
UCGCAGCAAUAUUACGGAAA	-2.71 ± 0.21	-1.57 ± 0.17
GUCUAGCAAUAUUACGAAGG	-2.34 ± 0.18	-1.43 ± 0.16
AUUCAGCAAUAUUACGCACA	-0.671 ± 0.096	-0.192 ± 0.1
UCGUAGCAAUAUUACGAAAG	-3.1 ± 0.17	-2.16 ± 0.23
UCGGAGCAAUAUUACGGACA		-1.38 ± 0.37
UGAAAGCAAUAUUACGGGAA	-2.6 ± 0.14	-1.62 ± 0.12
CACCAGCAAUAUUACGCGUU	-2.15 ± 0.062	-0.539 ± 0.067
CCCUAGCAAUAUUACGGGAC	-2.48 ± 0.18	-1.87 ± 0.23
UUAGAGCAAUAUUACGUUAG	-0.978 ± 0.13	0.238 ± 0.21
UCUUAGCAAUAUUACGCGUA	-3.4 ± 0.24	-1.38 ± 0.15
GACCAGCAAUAUUACGCGUA	-0.76 ± 0.059	-0.392 ± 0.068
GGACAGCAAUAUUACGGUUC	-3.64 ± 0.15	-1.82 ± 0.14
AUUAAGCAAUAUUACGAGAG	-2.61 ± 0.24	-1.83 ± 0.27
CACUAGCAAUAUUACGGCAG	-0.257 ± 0.049	0.189 ± 0.066
GGGCAGCAAUAUUACGGGCG	-0.318 ± 0.088	-0.0663 ± 0.1
AUCCAGCAAUAUUACGGGUC	-3.06 ± 0.12	-1.62 ± 0.13
AUUAAGCAAUAUUACGUUAU	-1.22 ± 0.097	-1.1 ± 0.15
UCGAAGCAAUAUUACGGUUG	-1.65 ± 0.097	-0.93 ± 0.14
GUCUAGCAAUAUUACGUCAU	-0.258 ± 0.12	-0.425 ± 0.081
